This is an account of results in patent US7038112B2, “Fatty acid elongases” (Miami University, priority 1997, dated 2006).

Read-outs that look alike come from different tables or passages of the source.

Series [1] deals with T1, EL2 (Arabidopsis thaliana, UniProt Q9SYZ0).
T1 construct: Yeast cultures containing full-length EL1 in λYES and full-length EL2 in pYEUra3 were grown in the presence of galactose or glucose; made in house; microsomes of galactose-induced cells
T1 sequence (Q9SYZ0 36-493): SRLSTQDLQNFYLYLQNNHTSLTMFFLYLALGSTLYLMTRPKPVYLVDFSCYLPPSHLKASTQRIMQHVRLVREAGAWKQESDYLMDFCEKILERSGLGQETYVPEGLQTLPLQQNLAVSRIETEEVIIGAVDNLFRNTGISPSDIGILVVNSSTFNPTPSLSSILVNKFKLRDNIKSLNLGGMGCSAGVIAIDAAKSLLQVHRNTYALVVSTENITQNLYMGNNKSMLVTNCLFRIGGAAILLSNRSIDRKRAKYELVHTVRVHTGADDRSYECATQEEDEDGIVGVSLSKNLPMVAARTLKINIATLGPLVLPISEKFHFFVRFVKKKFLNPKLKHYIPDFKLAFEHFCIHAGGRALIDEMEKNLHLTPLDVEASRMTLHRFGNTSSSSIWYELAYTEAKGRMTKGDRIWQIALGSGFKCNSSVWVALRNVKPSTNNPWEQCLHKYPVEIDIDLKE
The series is described as follows: 18:0-CoA elongation by EL2 microsomes in standard reaction mix containing cerulenin. Format: biochemical. The method, then: (§1) Fatty acid elongase activity was measured essentially as described in Hlousek-Radojcic, A. et al., Plant J. 8:803–809 (1995). Briefly, the standard elongation reaction mix contained 80 mM Hepes-KOH, pH 7.2, 20 mM MgCl2, 500 μM NADPH, 1 mM ATP, 100 μM malonyl-CoA, 10 μM CoA-SH and 15 μM radioactive acyl-CoA substrate. The radiolabeled substrate was either [1^−14C]18:1-CoA (50 uCi μmol^−1), [1^−14C]18:0-CoA (55 uCi μmol^−1), or [1^−14C]16:0-CoA (54 uCi μmol^−1). The reaction was initiated by the addition of yeast microsomes (5 μg protein) and the mixture incubated at 30° C. for the indicated period of time. The final reaction volume was 25 μl.
(§2) Methyl esters of the acyl-CoA elongation products were prepared as described in Example 1. Methyl esters were separated on reversed phase silica gel KC18 TLC plates (Whatman, […] thick), quantified by phosphorimaging, and analyzed on by ImageQuant software (Molecular Dynamics, Inc., Sunnyvale, Calif.). The detection limit for each product is about 0.001 nanomoles per min. per mg microsomal protein, depending on the phosphorimage exposure time.
(§3) In a third experiment, microsomes from induced and uninduced cultures containing EL1 or EL2 were incubated in the absence of cofactors involved in the β-ketoacyl condensation reaction. Cultures were induced and microsomes were prepared as described in Example 2. In vitro assays were carried out as described in Example 2, except that either ATP, CoASH or both were omitted from the enzyme reaction mixture.

In series [2] the target is T2, EL1 (Arabidopsis thaliana, UniProt Q9MAM3).
T2 construct: Yeast cultures containing full-length EL1 in λYES and full-length EL2 in pYEUra3 were grown in the presence of galactose or glucose; made in house; microsomes of galactose-induced cells
The series is described as follows: 18:0-CoA elongation by EL1 microsomes in standard reaction mix containing cerulenin. The class given is biochemical. The method, then: as §1, §2, §3

The nature of series [3]: In vitro fatty acid elongation assay with yeast microsomes, 18:0 acyl-CoA substrate. Format: biochemical, Saccharomyces cerevisiae. The method, then: (§4) Transformed yeast cells were grown in the presence of either glucose or galactose (2% w/v) as described in Example 1. Cells were harvested by centrifugation at 5000×g for 10 min and washed with 10 ml ice cold isolation buffer (IB), which contains 80 mM Hepes-KOH, pH 7.2, 5 mM EGTA, 5 mM EDTA, 10 mM KC1, 320 mM sucrose and 2 mM DTT). Cells were then resuspended in enough IB to fill a 1.7 ml tube containing 700 μl of 0.5 μm glass beads and yeast microsomes were isolated from the cells essentially as described in Tillman, T. and Bell, R., J. Biol. Chem. 261:9144–9149 (1986). The microsomal membrane pellet was recovered by centrifugation at 252,000×g for 60 min. The pellet was rinsed by resuspending in 40 ml fresh IB and again recovered by centrifugation at 252000×g for 60 min. Microsomal pellets were resuspended in a minimal volume of IB, and the protein concentration adjusted to 2.5 μg μl^−1 by addition of IB containing 15% glycerol. Microsomes were frozen on dry ice and stored at −80° C. The protein concentration in microsomes was determined by the Bradford method (Bradford, 1976).
as §1, §2
(§5) Yeast cultures containing full-length EL1 in λYES and full-length EL2 in pYEUra3 were grown in the presence of galactose or glucose as described in Example 2. Microsomes were then prepared from each of the cultures and fatty acid elongation assays were carried out as described in Example 2.
(§6) In the first experiment, microsomes were prepared from galactose-induced cultures of EL1, EL2 and FAE1, and incubated with either [1-^14C] 18:0 acyl-CoA or [1-^14C] 18:1 acyl-CoA as substrate. The amounts of various reaction products synthesized after 30 minutes (min) were determined as described in Example 2.
In a second experiment, microsomes were prepared from galactose-induced and from glucose-repressed yeast cultures containing EL1 or EL2 coding sequences. The microsomal preparations were incubated with either 18:0 acyl-CoA or 18:1 acyl-CoA as substrate and the fatty acid reaction products determined as described above. […]

Series [4] is classed as biochemical, Saccharomyces cerevisiae. As for the experimental part:
as §4, §1, §2, §5, §6
In a second experiment, microsomes were prepared from galactose-induced and from glucose-repressed yeast cultures containing EL1 or EL2 coding sequences. The microsomal preparations were incubated with either 18:0 acyl-CoA or 18:1 acyl-CoA as substrate and the fatty acid reaction products determined as described above.

A short description of series [5]: In vitro fatty acid elongation assay with yeast microsomes, 16:0 acyl-CoA substrate. Format: biochemical, Saccharomyces cerevisiae. The method, then:
as §4, §1, §2

In series [6] the test system is Saccharomyces cerevisiae strain AB1380. In words: Fatty acid composition of yeast cells transformed with pYEUra3/FAE1. The class given is cell-based. Particulars: galactose-induced yeast containing the FAE1 coding sequence. The method, then:
Yeast transformed with pYEUra3 having FAE1 operably linked to the GAL1 promoter were grown in the presence of galactose or glucose and were analyzed for the expression of FAE1. As a control, yeast transformed with pYEUra3 containing no insert were also assayed. Analysis of such control preparations yielded fatty acid compositions and fatty acid elongation rates similar to those of yeast transformed with pYEUra3/FAE1. and grown with glucose as the carbon source.
The fatty acid composition of yeast cells grown in the presence of galactose was compared to that of cells grown in the presence of glucose, to determine if VLCFA were found in the galactose-induced cells.
Transformed yeast cells were grown overnight in YPD media at 30° C. with vigorous shaking. One hundred μl of the overnight culture were used to inoculate 40 ml of complete minimal uracil dropout media (CM-Ura) supplemented with either glucose or galactose (2% w/v). Cultures were grown at 30° C. to an OD600 of approximately 1.3 to 1.5. Cells were harvested by centrifugation at 5000×g for 10 min. Total lipids were extracted from the cells with 2 volumes of 4N KOH in 100% methanol for 60 min. at 80° C. […] Methyl esters were analyzed on an HP 5890 series II gas chromatograph equipped with a 5771MSD and 7673 auto injector (Hewlett-Packard, Cincinnati, Ohio.). […]

The mark [7] stands for this setting: EL2, galactose-induced, +Cer 0.01 mM cerulenin, average of two experiments.
The mark [8] stands for this setting: EL1, galactose-induced, +Cer 0.01 mM cerulenin, average of two experiments.
Where [9] appears, read: 18:0-CoA substrate, galactose-induced, 30 min, first experiment.
The mark [10] stands for this setting: 18:1-CoA substrate, galactose-induced, 30 min, first experiment.
[11] abbreviates: microsomes from galactose-induced cells.

T2 sequence (Q9MAM3 9-528 limits assumed): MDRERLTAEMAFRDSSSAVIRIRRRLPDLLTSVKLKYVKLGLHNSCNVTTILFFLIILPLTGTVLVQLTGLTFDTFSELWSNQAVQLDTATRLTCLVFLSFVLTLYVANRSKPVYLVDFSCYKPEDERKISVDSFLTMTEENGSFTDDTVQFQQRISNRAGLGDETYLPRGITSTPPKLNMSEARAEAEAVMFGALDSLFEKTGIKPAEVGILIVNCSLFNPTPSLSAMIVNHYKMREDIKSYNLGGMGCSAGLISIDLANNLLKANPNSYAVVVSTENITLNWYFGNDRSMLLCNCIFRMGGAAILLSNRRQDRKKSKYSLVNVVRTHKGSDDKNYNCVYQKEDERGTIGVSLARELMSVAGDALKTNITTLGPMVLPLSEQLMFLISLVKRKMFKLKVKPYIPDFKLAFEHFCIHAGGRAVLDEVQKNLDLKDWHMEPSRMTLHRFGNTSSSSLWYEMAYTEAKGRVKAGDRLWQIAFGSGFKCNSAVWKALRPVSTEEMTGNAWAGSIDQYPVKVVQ

Regarding `C/C=C/C/C=C/CCC(=O)[C@H]1O[C@H]1C(N)=O` [cerulenin], the “inhibition of KAS activity of EL2” value in series [1] (0.01 mM cerulenin) is on record as “does not inhibit”. In addition, in series [1] (setting [7]), the “20:0 product as a percent of total products formed” value is 41.8%, the “22:0 product as a percent of total products formed” value is given as 16.1%, the “24:0 product as a percent of total products formed” value turned out to be 20.4% and the “26:0 product as a percent of total products formed” value was 21.8%. Further, the “Total products as a percent of total products formed” value in series [1] (setting [7]) is reported as 100.0%. In addition, in series [2] (0.01 mM cerulenin), the “inhibition of KAS activity of EL1” value is “does not inhibit”. Moreover, in series [2] (setting [8]), the “20:0 product as a percent of total products formed” value was 46.7%, the “22:0 product as a percent of total products formed” value was 16.2%, the “24:0 product as a percent of total products formed” value turned out to be 17.7% and the “26:0 product as a percent of total products formed” value came out at 19.4%. Moreover, the “Total products as a percent of total products formed” value in series [2] (setting [8]) was determined as 100.0%.

B1: FAE1: Known Arabidopsis FAE1 elongase β-ketoacyl synthase expressed in yeast, used as comparator (protein, UniProt Q38860 1-506, looked up)
3-ketoacyl-CoA synthase 18: MTSVNVKLLYRYVLTNFFNLCLFPLTAFLAGKASRLTINDLHNFLSYLQHNLITVTLLFAFTVFGLVLYIVTRPNPVYLVDYSCYLPPPHLKVSVSKVMDIFYQIRKADTSSRNVACDDPSSLDFLRKIQERSGLGDETYSPEGLIHVPPRKTFAASREETEKVIIGALENLFENTKVNPREIGILVVNSSMFNPTPSLSAMVVNTFKLRSNIKSFNLGGMGCSAGVIAIDLAKDLLHVHKNTYALVVSTENITQGIYAGENRSMMVSNCLFRVGGAAILLSNKSGDRRRSKYKLVHTVRTHTGADDKSFRCVQQEDDESGKIGVCLSKDITNVAGTTLTKNIATLGPLILPLSEKFLFFATFVAKKLLKDKIKHYYVPDFKLAVDHFCIHAGGRAVIDELEKNLGLSPIDVEASRSTLHRFGNTSSSSIWYELAYIEAKGRMKKGNKAWQIALGSGFKCNSAVWVALRNVKASANSPWQHCIDRYPVKIDSDLSKSKTHVQNGRS
As to B1, in series [3] (setting [9]), the “(%) 20:0 acyl-CoA product” value was 64.3%, the “(%) 22:0 acyl-CoA product” value is reported as 18.6%, the “(%) 24:0 acyl-CoA product” value was found to be 10.7% and the “(%) 26:0 acyl-CoA product” value is reported as 6.3%. Further, in series [3] (setting [9]), the “(%) Total acyl-CoA products” value is on record as 100.0%; the “Rate, 20:0 acyl-CoA product” value is reported as 0.369 Nanomoles/minute/mg of microsomal protein; the “Rate, 22:0 acyl-CoA product” value is 0.113 Nanomoles/minute/mg of microsomal protein; the “Rate, 24:0 acyl-CoA product” value is 0.065 Nanomoles/minute/mg of microsomal protein. In addition, in series [3] (setting [9]), the “Rate, 26:0 acyl-CoA product” value was 0.038 Nanomoles/minute/mg of microsomal protein and the “Rate, Total acyl-CoA products” value is given as 0.585 Nanomoles/minute/mg of microsomal protein. Further, the “synthesis of 20:0 CoA from the 18:0 CoA substrate” value in series [3] (microsomes from induced yeast) is reported as 5.1 nmol mg protein^−1. In addition, the “increase in 18:1 CoA elongation, microsomes from induced vs uninduced cells” value in series [4] is given as “about 18 fold”. For the same molecule, in series [4] (setting [10]), the “(%) 20:1 acyl-CoA product” value turned out to be 84.6%, the “(%) 22:1 acyl-CoA product” value came out at 15.4%, the “(%) 24:1 acyl-CoA product” value turned out to be 0.0% and the “(%) 26:1 acyl-CoA product” value was found to be 0.0%. In series [4] (setting [10]), the “(%) Total acyl-CoA products” value is 100.0%; the “Rate, 20:1 acyl-CoA product” value is given as 1.131 Nanomoles/minute/mg of microsomal protein; the “Rate, 22:1 acyl-CoA product” value is on record as 0.206 Nanomoles/minute/mg of microsomal protein; the “Rate, 24:1 acyl-CoA product” value is recorded as 0.0 Nanomoles/minute/mg of microsomal protein. Also, in series [4] (setting [10]), the “Rate, 26:1 acyl-CoA product” value is recorded as 0.0 Nanomoles/minute/mg of microsomal protein and the “Rate, Total acyl-CoA products” value is on record as 1.337 Nanomoles/minute/mg of microsomal protein. Besides, in series [4] (setting [11]), the “rate of elongation of oleoyl-CoA relative to rate of elongation of 16:0-CoA” value is “about 2 fold” and the “rate of elongation of oleoyl-CoA relative to rate of elongation of 18:0-CoA” value is about 3 fold. Besides, the “FAE1 elongase KAS activity, difference in 16:0 elongation rates between induced and uninduced microsomes” value in series [5] (induced minus uninduced) was 5.7 nmol mg protein^−1. The “16:0-CoA elongation by microsomes from induced cells, higher than uninduced cells” value in series [5] (induced vs uninduced) is “more than 50%”. Also, the “total rate of elongation of [14C]16:0-CoA” value in series [5] (microsomes from induced cells, at 30 min) was determined as 15.8 nmol mg protein^−1. Further, the “synthesis of 20:0 CoA from the 16:0 CoA substrate” value in series [5] (microsomes from induced yeast) came to 4.2 nmol mg protein^−1. Further, the “very long chain fatty acids in transformed yeast cells” value in series [6] was “appearance of both 20:1 and 22:1 acyl-CoA products”.
